Patent US20260234255A1 (Genmab, published 2026)

Columns and labels:
human CD30 [1] = target: T1, human CD30 (human, UniProt P28908 19-595); assay: flow cytometry, DEL cells, experiment N = 1
T1 construct: The same molecule is used for CD30 on HL/ALCL/NHL cell lines; also called huCD30; TNFRSF8
T1 sequence: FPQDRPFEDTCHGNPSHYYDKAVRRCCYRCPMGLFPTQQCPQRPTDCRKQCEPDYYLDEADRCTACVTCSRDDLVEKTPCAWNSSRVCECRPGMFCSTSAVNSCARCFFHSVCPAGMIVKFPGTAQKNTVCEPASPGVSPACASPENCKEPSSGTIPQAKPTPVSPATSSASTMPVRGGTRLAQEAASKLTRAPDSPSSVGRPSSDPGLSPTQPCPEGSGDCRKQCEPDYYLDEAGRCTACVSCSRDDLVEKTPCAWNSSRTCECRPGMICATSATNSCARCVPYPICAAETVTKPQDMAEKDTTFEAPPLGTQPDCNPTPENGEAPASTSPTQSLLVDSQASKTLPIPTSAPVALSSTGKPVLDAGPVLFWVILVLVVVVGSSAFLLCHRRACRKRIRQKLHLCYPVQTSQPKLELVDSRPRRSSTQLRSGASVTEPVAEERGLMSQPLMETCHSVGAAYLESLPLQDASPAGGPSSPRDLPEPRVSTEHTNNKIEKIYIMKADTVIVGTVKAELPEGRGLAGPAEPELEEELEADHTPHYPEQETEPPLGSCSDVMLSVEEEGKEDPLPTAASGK

human CD30 [2] = target: T1, human CD30; assay: flow cytometry, KI-JK cells, experiment N = 1
human CD30 [3] = target: T1, human CD30; assay: flow cytometry, L-428 cells, experiment N = 1
human CD30 [4] = target: T1, human CD30; assay: cell-based or functional assay
human CD30 [5] = target: T1, human CD30; assay: flow cytometry, L-540 cells (HL), range of 3 tests
Method: (§1) Cells (3×10⁴ cells/well) were incubated in polystyrene 96-well round-bottom plates (Greiner bio-one, cat. no. 650180) with serial dilutions of antibodies (range 0.0046 to 10 μg/mL in 3-fold dilution steps) in 50 μL staining buffer at 4° C. for 30 min. After washing twice in staining buffer, cells were incubated with 50 μL secondary antibody at 4° C. for 30 min. […] Next, cells were washed twice in staining buffer, resuspended in 100 μL staining buffer supplemented with TO-PRO-3 iodide (Thermo Fisher Scientific; cat. no. T3605; 1:8000 dilution) and analyzed on a FACSCelesta flow cytometer (BD Biosciences, USA). Live cells were gated based on FSC/SSC and absence of TOPRO-3 staining. Binding curves were analyzed by non-linear regression of log-transformed data (sigmoidal dose-response with variable slope, four parameters) using GraphPad Prism V7.02 software (GraphPad Software, San Diego, CA, USA).

human CD30 [6] = target: T1, human CD30; assay: flow cytometry, L-82 cells (ALCL), range of 2 tests
Method: as §1

human CD30 [7] = target: T1, human CD30; assay: flow cytometry, DEL cells (ALCL), average of 3 tests
Method: as §1

human CD30 [8] = target: T1, human CD30; assay: flow cytometry, KI-JK cells (ALCL), range of 3 tests
Method: as §1

human CD30 [9] = target: T1, human CD30; assay: flow cytometry, NCEB-1 cells (MCL), range of 3 tests
Method: as §1

human CD30 [10] = target: T1, human CD30; assay: flow cytometry, HDLM-2 cells (HL), average of 3 tests
Method: as §1

[11] = target: T2, rhesus monkey (Macaca mulatta) CD30 (rhesus monkey, UniProt P28908 19-595 (human entry)); assay: flow cytometry, HEK293 cells; panel title 'HEK293 rhesus CD30'
T2 construct: also called mmCD30
T2 chain: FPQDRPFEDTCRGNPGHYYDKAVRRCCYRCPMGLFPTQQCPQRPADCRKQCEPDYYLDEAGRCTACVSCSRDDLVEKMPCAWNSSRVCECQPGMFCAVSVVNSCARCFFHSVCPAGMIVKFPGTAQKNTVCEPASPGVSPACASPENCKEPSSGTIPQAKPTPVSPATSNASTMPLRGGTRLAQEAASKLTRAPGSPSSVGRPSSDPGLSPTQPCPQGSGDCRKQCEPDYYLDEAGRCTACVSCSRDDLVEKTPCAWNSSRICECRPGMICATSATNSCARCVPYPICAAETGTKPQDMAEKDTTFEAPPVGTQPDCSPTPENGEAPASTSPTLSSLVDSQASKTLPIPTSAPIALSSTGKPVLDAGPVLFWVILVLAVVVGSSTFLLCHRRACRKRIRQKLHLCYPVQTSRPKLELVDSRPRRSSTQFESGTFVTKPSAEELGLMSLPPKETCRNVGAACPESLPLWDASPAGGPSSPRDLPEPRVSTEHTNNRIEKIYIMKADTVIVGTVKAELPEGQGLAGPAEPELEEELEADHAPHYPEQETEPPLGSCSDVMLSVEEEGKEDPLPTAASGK
Method: Cells (3×10⁴ cells/well) were incubated in polystyrene 96-well round-bottom plates (Thermo Scientific, cat. no. 163320) with serial dilutions of antibodies (ranging from 0.0002 to 50 μg/mL in 4-fold dilution steps) in 50 μL staining buffer at 4° C. for 30 min. Experiments were performed in technical duplicate. After washing twice in staining buffer, cells were incubated in 50 μL secondary antibody at 4° C. for 30 min. As a secondary antibody, R-PE-conjugated goat-anti-human IgG (Jackson ImmunoResearch, UK; cat. no. 109⁻¹¹⁶-098) diluted 1:200 in staining buffer was used. Cells were washed twice in staining buffer, resuspended in 30 μL staining buffer containing 0.4% EDTA and the ToPro-3 viability marker (Invitrogen, cat. no. T3605) diluted 1:10,000. Cells were analyzed on an iQue Screener (Intellicyt Corporation, USA). Binding curves were analyzed using non-linear regression (sigmoidal dose-response with variable slope) using GraphPad Prism V9.0.0 software (GraphPad Software, San Diego, CA, USA).

| Binder | EC50 (human CD30 [1]) | EC50 (human CD30 [2]) | EC50 (human CD30 [3]) | T-cell mediated cytotoxicity of KI-JK cells, average IC50 (human CD30 [4]) | T-cell mediated cytotoxicity of L-428 cells, average IC50 (human CD30 [4]) | EC50 (human CD30 [5]) | EC50 (human CD30 [6]) | EC50 (human CD30 [7]) | EC50 (human CD30 [8]) | EC50 (human CD30 [9]) | EC50 (human CD30 [10]) | EC50 (read off the curve) [11] |
| --- | --- | --- | --- | --- | --- | --- | --- | --- | --- | --- | --- | --- |
| bsG1-huCD3-FEALxCD30-MDX060-FEAR (bispecific antibody, human IgG1, kappa, lambda, also called bsG1-huCD3xCD30-MDX060) heavy 1: not shown light 1: not shown heavy 2: QVQLQQWGAGLLKPSETLSLTCAVYGGSFSAYYWSWIRQPPGKGLEWIGDINHGGGTNYNPSLKSRVTISVDTSKNQFSLKLNSVTAADTAVYYCASLTAYWGQGSLVTVSSASTKGPSVFPLAPSSKSTSGGTAALGCLVKDYFPEPVTVSWNSGALTSGVHTFPAVLQSSGLYSLSSVVTVPSSSLGTQTYICNVNHKPSNTKVDKRVEPKSCDKTHTCPPCPAPEFEGGPSVFLFPPKPKDTLMISRTPEVTCVVVAVSHEDPEVKFNWYVDGVEVHNAKTKPREEQYNSTYRVVSVLTVLHQDWLNGKEYKCKVSNKALPAPIEKTISKAKGQPREPQVYTLPPSREEMTKNQVSLTCLVKGFYPSDIAVEWESNGQPENNYKTTPPVLDSDGSFFLYSRLTVDKSRWQQGNVFSCSVMHEALHNHYTQKSLSLSPG light 2: DIQMTQSPTSLSASVGDRVTITCRASQGISSWLTWYQQKPEKAPKSLIYAASSLQSGVPSRFSGSGSGTDFTLTISSLQPEDFATYYCQQYDSYPITFGQGTRLEIKRTVAAPSVFIFPPSDEQLKSGTASVVCLLNNFYPREAKVQWKVDNALQSGNSQESVTEQDSKDSTYSLSSTLTLSKADYEKHKVYACEVTHQGLSSPVTKSFNRGEC | 0.302 µg/mL | 0.16 µg/mL | 0.154 µg/mL |  |  |  |  |  |  |  |  |  |
| bsG1-huCD3-FEALxCD30-MDX060-FERR (bispecific antibody, human IgG1, kappa, lambda, Bispecific IgG1 made by controlled Fab-arm exchange; also called bsIgG1-huCD3-FEALxCD30-MDX060-FERR; bsG1-huCD3×CD30-MDX060) heavy 1: not shown light 1: not shown heavy 2: QVQLQQWGAGLLKPSETLSLTCAVYGGSFSAYYWSWIRQPPGKGLEWIGDINHGGGTNYNPSLKSRVTISVDTSKNQFSLKLNSVTAADTAVYYCASLTAYWGQGSLVTVSSASTKGPSVFPLAPSSKSTSGGTAALGCLVKDYFPEPVTVSWNSGALTSGVHTFPAVLQSSGLYSLSSVVTVPSSSLGTQTYICNVNHKPSNTKVDKRVEPKSCDKTHTCPPCPAPEFERGPSVFLFPPKPKDTLMISRTPEVTCVVVDVSHEDPEVKFNWYVDGVEVHNAKTKPREEQYNSTYRVVSVLTVLHQDWLNGKEYKCKVSNKALPAPIEKTISKAKGQPREPQVYTLPPSREEMTKNQVSLTCLVKGFYPSDIAVEWESNGQPENNYKTTPPVLDSDGSFFLYSRLTVDKSRWQQGNVFSCSVMHEALHNHYTQKSLSLSPG light 2: DIQMTQSPTSLSASVGDRVTITCRASQGISSWLTWYQQKPEKAPKSLIYAASSLQSGVPSRFSGSGSGTDFTLTISSLQPEDFATYYCQQYDSYPITFGQGTRLEIKRTVAAPSVFIFPPSDEQLKSGTASVVCLLNNFYPREAKVQWKVDNALQSGNSQESVTEQDSKDSTYSLSSTLTLSKADYEKHKVYACEVTHQGLSSPVTKSFNRGEC |  |  |  | 0.0015 µg/mL | 0.002 µg/mL | 0.202 to 0.469 µg/mL | 0.184 to 0.215 µg/mL | 0.201 µg/mL | 0.143 to 0.258 µg/mL | 0.118 to 0.2 µg/mL | 0.167 µg/mL | ~0.07 µg/mL |
